Experiments:
[1] = molecular target: endothelial protein C receptor (EPCR), extracellular domain, biotinylated on the N-terminal BAP tag (human) (UniProt Q9UNN8); assay: SPR
[2] = molecular target: endothelial protein C receptor (EPCR), extracellular domain, not biotinylated (human) (UniProt Q9UNN8); assay: SEC-MALS; Superdex 75 analytical column, light scattering at 662 nm at 8 angles (Heleos 8), masses by the Zimm equation (ASTRA 6.1); HB3var03 CIDRα1.4, EPCR and their complex
[3] = molecular target: endothelial protein C receptor (EPCR), extracellular domain, not biotinylated (human) (UniProt Q9UNN8); assay: AUC
[4] = molecular target: CIDRα1.4 domain of PfEMP1 HB3var03, E. coli construct with domain boundaries for crystallisation (Plasmodium falciparum); assay: ITC; MicroCal iTC200, 25°C, 20 mM HEPES pH 7.5, 150 mM NaCl; EPCR (36 µM by the legend, 50 µM by the supplemental methods) injected into the cell with HB3var03 CIDRα1.4
[5] = molecular target: endothelial protein C receptor, extracellular domain (human) (UniProt Q9UNN8); assay: small-angle X-ray scattering
[6] = molecular target: T1, endothelial protein C receptor (EPCR), extracellular domain, biotinylated on the N-terminal BAP tag (human, UniProt Q9UNN8 18-210, biotin attached to the N-terminal BAP tag (BirA)); assay: SPR; Biacore T200; biotinylated EPCR captured on a CAP chip (Biotin Capture Kit) to 150 RU, fresh for each cycle; two-fold dilution series of each CIDRα1 injected for 240 s, dissociation 300 s; 20 mM HEPES pH 7.5, 150 mM NaCl, 0.005% Tween-20, 25°C; surface without EPCR subtracted; global fit to a 1:1 interaction model; conditions: both partners purified
T1 construct: also called biotinylated recombinant EPCR; ECPR
T1 sequence: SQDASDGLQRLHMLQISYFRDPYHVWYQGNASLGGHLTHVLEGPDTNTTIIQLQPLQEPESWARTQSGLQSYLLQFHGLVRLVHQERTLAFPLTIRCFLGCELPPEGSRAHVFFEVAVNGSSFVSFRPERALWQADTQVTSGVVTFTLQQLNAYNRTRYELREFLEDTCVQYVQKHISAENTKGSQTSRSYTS

Molecule: CIDRα1.4 domain of PfEMP1 HB3var03, E. coli construct with domain boundaries for crystallisation (domain or fragment)
- Kd [1]: 0.37 nM
- koff [1]: 0.000197 s⁻¹
- kon [1]: 532000 M⁻¹ s⁻¹
- stoichiometry N [2]: 1
- stoichiometry N [3]: 1

Molecule: endothelial protein C receptor (EPCR), extracellular domain, not biotinylated (from UniProt Q9UNN8 18-210)
- Kd [4]: 1.5 nM
- stoichiometry N [4]: 0.94

Molecule: CIDRα1.4 domain of PfEMP1 IT4var07, E. coli construct with domain boundaries for crystallisation (domain or fragment)
- Kd [1]: 1.3 nM
- koff [1]: 0.000468 s⁻¹
- kon [1]: 370000 M⁻¹ s⁻¹

Molecule: DD2var32 DBLα1.7-CIDRα1.4-DBLβ1 (the three membrane distal domains) (domain or fragment)
- stoichiometry N [5]: 1 PfEMP1:EPCR

B1: CIDRα1.5b domain 1918-5 (patient isolate 1918) (domain or fragment, Plasmodium falciparum)
chain: PDCGVKCTNGKCEEKTDVDGNCGNKETYIPPRDISPTEISVLYSGYKRDDISEKLETFCREPTNNKSKNNETWKCYYKHSYNNKINKCIRQNEENIKNKLIINLDTFFEFWVRSFLNDTIDWKYDLNTCMNFTNTTKCNNNCNKNCKCFEQWVNKKETEWKNVAQYFFKHNEISKKKYCEILKDIFENYYVEVIKKVFKGDNKWKEIMVDIKNKIDCSNLKNGTEHLEKIINVLINQEQADATTCLKNNPIESCPKAEPQKSDENTQPQDTPPNSC
notes: The C-terminal V5 and His tags are told for the newly synthesised domains (D1:p2); also called CIDRa1.5b 1918-5_1918; 1918-5 (1.5b)
- Kd [6]: 229 nM
- koff [6]: 0.000108 s⁻¹
- kon [6]: 471 M⁻¹ s⁻¹

Source: article PMC4297295, “Structural Conservation Despite Huge Sequence Diversity Allows EPCR Binding by the PfEMP1 Family Implicated in Severe Childhood Malaria” (Cell Host & Microbe, 2015)
